The text below walks through data of patent US8540999B2, “Allergenic proteins and peptides from Japanese cedar pollen” (Merck Patent GmbH, priority 1991, dated 2013).

The subject of one experiment is Cry j I reactive T cells. Put plainly: T cell proliferation assay, Cry j I primed T cell lines (Example 6). Format: cell-based, human. The method, then: Viable cells were purified by LSM centrifugation and cultured in complete medium supplemented with 5 units recombinant human IL-2/ml and 5 units recombinant human IL-4/ml for up to three weeks until the cells no longer responded to lymphokines and were considered “rested”. The ability of the T cells to proliferate to selected peptides, recombinant Cry j I (rCry j I), purified native Cry j I, or recombinant Amb aI.1 (rAmb aI.1) or a positive control, phyto-hemaglutinin (PHA) was then assessed. For assay, 2×10^4 rested cells were restimulated in the presence of 2×10^4 autologous Epstein-Barr virus (EBV)-transformed B cells (prepared as described below) (gamma-irradiated with 25,000 RADS) with 2-50 μg/ml of selected peptides, Cry j I, purified native Cry j I or rAmb a I.1 or PHA, in a volume of 200 μl complete medium in duplicate or triplicate wells in 96-well round bottom plates for 2-4 days. […] Each well then received 1 μCi tritiated thymidine for 16-20 hours. The counts incorporated were collected onto glass fiber filter mats and processed for liquid scintillation counting. […] The titrations were used to optimize the dose of peptides in T cell assays. The maximum response in a titration of each peptide is expressed as the stimulation index (S.I.). The S.I. is the counts per minute (CPM) incorporated by cells in response to peptide, divided by the CPM incorporated by cells in medium only.
The above procedure was followed with a number of other patients. […] The bars represent the positivity index. Above each bar is the percent of positive responses with an S.I. of at least two to the peptide or protein in the group of patients tested. In parenthesis above each bar are the mean stimulation indices for each peptide or protein for the group of patients tested.
Autologous EBV-transformed cell lines were y-irradiated with 25,000 Rad and used as antigen presenting cells in secondary proliferation assays and secondary bulk stimulations. These EBV-transformed cell lines were made by incubating 5×10^6 PBL with 1 ml of B-59/8 Marmoset cell line (ATCC CRL1612, American Type Culture Collection, Rockville, Md.) conditioned medium in the presence of 1 μg/ml phorbol 12-myristate 13-acetate (PMA) at 37° C. for 60 minutes in 12×75 mm polypropylene round-bottom Falcon snap cap tubes (Becton Dickinson Labware, Lincoln Park, N.J.). These cells were then diluted to 1.25×10^6 cells/ml in RPMI-1640 as described above except supplemented with 10% heat-inactivated fetal bovine serum and cultured in 200 μl aliquots in flat bottom culture plates until visible colonies were detected. They were then transferred to larger wells until the cell lines were established.

Experiment [1] concerns Secondary T cell cultures reactive with Cry j I protein antigen. Put plainly: In vitro T cell proliferation assay, secondary T cell cultures of 36 Cry j I-allergic subjects, percent T cell reactivity algorithm. Format: cell-based, human. Particulars: patient 1308; highest S.I. >= 2.0 recorded per peptide.
The next experiment deals with allergic patient IgE. Put plainly: Direct ELISA, IgE binding to rCry j I and Cry j I peptides (Example 8). Also noted: species or system human. The method, then: The recombinant Cry j I protein (rCry j I), expressed in bacteria and then purified (as described in Example 5), has been examined for IgE reactivity. The first method applied to this examination was direct ELISA where wells were coated with the recombinant Cry j I and IgE binding was assayed on individual patients. FIG. 9 is the graphic representation of this direct ELISA.
To analyze IgE reactivity to selected Cry j I peptides a direct ELISA format was used. ELSIA wells were coated with 25 peptides derived from Cry j I and assayed for IgE binding. FIG. 15a and 15b are graphs of these binding results using PHP (15 patients) as the cedar pollen allergic IgE source. This pool of plasma was formulated for enrichment of IgE that could bind to denatured SPE (as determined by direct ELISA) and therefore increase the chance of reactivity toward the peptides.
A general note: An ELISA detects its analyte on a solid surface through an enzyme-linked reagent.

The subject of a further experiment is human allergic IgE. Put plainly: Capture ELISA with MAb CBF2. Format: binding. Particulars: pooled human plasma (15 patients), FIG. 10a. The method, then: Another method of analysis that was applied to the examination of IgE reactivity to the recombinant Cry j I was a capture ELISA. This analysis relies on the use of a defined antibody, in this case CBF2 to bind the antigen and allow for the binding of antibodies to other epitope sites. The format of this capture ELISA is 1) wells are coated with MAb CBF2, 2) antigen or PBS (as one type of negative control) is added and captured by specific interaction with the coated MAb, 3) either the control antibody anti-Amb a I & II (FIG. 10b) or human allergic plasma (FIG. 10a) is added as the detecting antibody, and 4) detection of antibody binding is assayed. FIGS. 10a and 10b are the graphed results of these assays. For the IgE analysis, the pooled human plasma (PHP) (15 patients) was used.

The subject of the next experiment is IgE. Put plainly: RAST, competition ELISA and Western blotting (data not shown). It is filed as binding, human.
The next experiment concerns human basophil. Put plainly: Histamine release assay. Format: cell-based. Conditions: one Japanese cedar pollen allergic patient, FIG. 11. As to the method: To determine whether a peptide which binds IgE results in the release of mediators, a histamine release assay can be performed using standard reagents and protocols obtained for example, from Amac, Inc. (Westbrook, Me.). Briefly, a buffered solution of a peptide to be tested is combined with an equal volume of whole heparinized blood from an allergic subject. After mixing and incubation, the cells are pelleted and the supernatants are processed an analyzed using a radioimmunoassay to determine the amount of histamine released.
A histamine release assay was performed on one Japanese cedar pollen allergic patient using Japanese cedar pollen SPE, purified native Cry j I and rCry j I as the added antigens. This assay is a measure of IgE reactivity through human basophil mediator release. […] Two possible explanations for this release by the rCry j I are: 1) specific reactivity with a very low proportion of the anti-Cry j I IgE capable of recognizing the recombinant form of Cry j I, or 2) non-specific release caused by low abundance of bacterial contaminants observed only at the highest antigen concentration. […] In addition, the data shown are from single data points at each protein concentration.

Take “CJ1-30: Cry j I peptide, SEQ ID NO: 55 (CSNWVWQSTQDVFYNGAYFV; listed as Cryptomeria japonica)”: the “T cell line response” value in the experiment with Cry j I reactive T cells (panel of twenty-five patients, FIG. 14) is “responded”. For the same molecule, the “STIMULATION INDEX” value in experiment [1] amounted to 0.

B1: rCry j I: recombinant Cry j I protein expressed in bacteria (E. coli) and purified (protein)
chain: DNPIDSCWRGDSNWAQNRMKLADCAVGFGSSTMGGKGGDLYTVTNSDDDPVNPAPGTLRYGATRDRPLWIIFSGNMNIKLKMPMYIAGYKTFDGRGAQVYIGNGGPCVFIKRVSNVIIHGLYLYGCSTSVLGNVLINESFGVEPVHPQDGDALTLRTATNIWIDHNSFSNSSDGLVDVTLTSTGVTISNNLFFNHHKVMLLGHDDAYSDDKSMKVTVAFNQFGPNCGQRMPRARYGLVHVANNNYDPWTIYAIGGSSNPTILSEGNSFTAPNESYKKQVTIRIGCKTSSSCSNWVWQSTQDVFYNGAYFVSSGKYEGGNIYTKKEAFNVENGNATPQLTKNAGVLTCSLSKRC
modifications: left off: small tags and cut ends
notes: recombinant Cry j I protein expressed in bacteria (E. coli) and purified
Take B1: the “percent of positive responses with an S.I. of at least two” value in the experiment on Cry j I reactive T cells (25 patients / T cell lines, FIG. 14) is listed as 68.0%. Moreover, the “T cell proliferative response” value in the experiment with Cry j I reactive T cells (patient #999, FIG. 12) is on record as “responds well”. Besides, in the experiment on allergic patient IgE (PHP (15 patients), FIG. 15), the “IgE binding, direct ELISA” value is “does not bind”. For the same molecule, in the experiment with allergic patient IgE (individual patients, FIG. 9), the “IgE reactivity, direct ELISA” value was “no IgE reactivity”. Moreover, in the experiment on human allergic IgE, the “specific binding of human allergic IgE, capture ELISA” value is “no indication of any specific binding”. Moreover, in the experiment on IgE, the “specific IgE reactivity” value is on record as “no specific IgE reactivity”. In the experiment with human basophil, the histamine release result was “only point where there is any measurable histamine release with the Cry j I is at the highest concentration”.
